In article PMC11134608 (2023):
No end group written: not given here. fluorescein = fluorescein (FAM) fluorescent label

T1: RARA/RXRA heterodimer (ligand-binding domains) (UniProt P10276 175-421; P19793 224-462)
T1 chain 1: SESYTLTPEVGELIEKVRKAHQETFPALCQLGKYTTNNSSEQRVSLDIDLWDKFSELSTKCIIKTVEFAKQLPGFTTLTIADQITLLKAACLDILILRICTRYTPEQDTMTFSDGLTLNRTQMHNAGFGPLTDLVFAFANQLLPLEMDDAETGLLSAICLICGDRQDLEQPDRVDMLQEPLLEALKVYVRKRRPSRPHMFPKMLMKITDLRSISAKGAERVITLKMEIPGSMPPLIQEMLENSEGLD
T1 chain 2: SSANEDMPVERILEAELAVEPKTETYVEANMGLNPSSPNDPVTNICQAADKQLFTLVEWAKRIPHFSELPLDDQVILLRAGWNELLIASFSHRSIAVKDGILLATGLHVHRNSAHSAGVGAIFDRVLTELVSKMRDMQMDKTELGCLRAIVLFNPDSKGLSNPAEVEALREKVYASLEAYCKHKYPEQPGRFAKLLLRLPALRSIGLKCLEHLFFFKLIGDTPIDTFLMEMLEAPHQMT

B1: NCOA1 aa686 (peptide)
chain: ARHKILHRLLQEGS
modifications: unlabelled competitor; the tracer form carries N-terminal fluorescein. The text prints limits 687-698 for a 14-mer; the LXXLL motif at 690-694 places RHKILHRLLQEGS at 686-698, with an extra N-terminal Ala in the printed peptide

Assays:
[1] = biological target: T1, RARA/RXRA heterodimer (ligand-binding …); experiment: FP; Kapp, competition with fluorescein-NCOA1 peptide, + ATRA
[2] = biological target: T1, RARA/RXRA heterodimer (ligand-binding …); experiment: FP; + ATRA
[3] = biological target: T1, RARA/RXRA heterodimer (ligand-binding …); experiment: FP; + DMSO (no ATRA)

Binder | apparent binding constant (Kapp) [1] [µM] | Kd [2] [µM] | Kd [3] [µM]
B1 | 3.7 |  | 
fluorescein-ARHKILHRLLQEGS [Fluorescein-labelled NCOA1 peptide residues 687–698 (Flc-ARHKILHRLLQEGS)] |  | 0.69 | 5.5
LQPYLRELLSAKD [UBR5 aa1098] | 41.4 |  | 
RLDLLYRLLTATN [UBR5 aa1251] | 3.1 |  | 
